Source: patent US20140087995A1 (published 2014)
Numbered stars: 1 amine (or outer) side, 2 acyl side, 3 side chain; on linkers, the order of the positions; unused ones are H or OH. Bridge positions count the residues as written; N and C are the ends. Side chains are listed from the residue outwards. Ends that are not written are not given here. * marks the point of attachment. C20 diacid = O=C(O)CCCCCCCCCCCCCCCCCCC(=O)*; γGlu = O=C(O)[C@H](CCC(=O)[*:2])N[*:1]

T1: human amylin receptor (human, UniProt P30988 25-474; O60896 24-148, limits assumed)
T1 construct: whole, on cells; Calcitonin receptor plus RAMP-3 gives the amylin 3(a) receptor; membranes of Amylin 3(a)/CRE-luc cells were used; also called hAmylin-R; hAmylinR
T1 sequence (looked up) 1: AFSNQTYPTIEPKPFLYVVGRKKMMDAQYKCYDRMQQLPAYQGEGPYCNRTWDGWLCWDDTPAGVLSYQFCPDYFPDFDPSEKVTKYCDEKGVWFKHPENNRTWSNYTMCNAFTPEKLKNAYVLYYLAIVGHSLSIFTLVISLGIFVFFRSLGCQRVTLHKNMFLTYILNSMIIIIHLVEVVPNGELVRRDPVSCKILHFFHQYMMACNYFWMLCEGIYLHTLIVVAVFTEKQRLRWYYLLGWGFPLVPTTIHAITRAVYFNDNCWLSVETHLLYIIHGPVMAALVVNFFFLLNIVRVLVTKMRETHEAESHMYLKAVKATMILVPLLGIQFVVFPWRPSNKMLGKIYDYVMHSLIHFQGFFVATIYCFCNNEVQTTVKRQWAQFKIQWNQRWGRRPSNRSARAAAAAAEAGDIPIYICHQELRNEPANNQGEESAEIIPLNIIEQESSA
T1 sequence (looked up) 2: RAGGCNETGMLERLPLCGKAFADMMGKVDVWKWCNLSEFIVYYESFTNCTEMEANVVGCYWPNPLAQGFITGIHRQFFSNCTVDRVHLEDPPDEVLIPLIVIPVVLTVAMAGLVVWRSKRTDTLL

B1: N^ε1-[(4S)-4-carboxy-4-[[(4S)-4-carboxy-4-(19-carboxynonadecanoylamino)butanoyl]amino]butanoyl]-[Asp14,Arg17,Pro21,Pro27,Arg35]-h-amylin (peptide)
peptide: K([γGlu-γGlu-C20 diacid])CNTATCATQRLADFLRHSSPNFGAIPSSTNVGSRTY-NH2
modifications: disulfide 2-7; N-terminus assumed
SMILES: CC[C@H](C)[C@H](NC(=O)[C@H](C)NC(=O)CNC(=O)[C@H](Cc1ccccc1)NC(=O)[C@H](CC(N)=O)NC(=O)[C@@H]1CCCN1C(=O)[C@H](CO)NC(=O)[C@H](CO)NC(=O)[C@H](Cc1c[nH]cn1)NC(=O)[C@H](CCCNC(=N)N)NC(=O)[C@H](CC(C)C)NC(=O)[C@H](Cc1ccccc1)NC(=O)[C@H](CC(=O)O)NC(=O)[C@H](C)NC(=O)[C@H](CC(C)C)NC(=O)[C@H](CCCNC(=N)N)NC(=O)[C@H](CCC(N)=O)NC(=O)[C@@H](NC(=O)[C@H](C)NC(=O)[C@@H]1CSSC[C@H](NC(=O)[C@@H](N)CCCCNC(=O)CC[C@H](NC(=O)CC[C@H](NC(=O)CCCCCCCCCCCCCCCCCCC(=O)O)C(=O)O)C(=O)O)C(=O)N[C@@H](CC(N)=O)C(=O)N[C@@H]([C@@H](C)O)C(=O)N[C@@H](C)C(=O)N[C@@H]([C@@H](C)O)C(=O)N1)[C@@H](C)O)C(=O)N1CCC[C@H]1C(=O)N[C@@H](CO)C(=O)N[C@@H](CO)C(=O)N[C@H](C(=O)N[C@@H](CC(N)=O)C(=O)N[C@H](C(=O)NCC(=O)N[C@@H](CO)C(=O)N[C@@H](CCCNC(=N)N)C(=O)N[C@H](C(=O)N[C@@H](Cc1ccc(O)cc1)C(N)=O)[C@@H](C)O)C(C)C)[C@@H](C)O
notes: also called 14D, 17R, 21P, 27P, 35R
B2: N^ε1-[(4S)-4-carboxy-4-[[(4S)-4-carboxy-4-(19-carboxynonadecanoylamino)butanoyl]amino]butanoyl]-[Asp14,Arg17,Pro21,Pro27,Asp35]-h-amylin (peptide)
peptide: K([γGlu-γGlu-C20 diacid])CNTATCATQRLADFLRHSSPNFGAIPSSTNVGSDTY-NH2
modifications: disulfide 2-7; N-terminus assumed
SMILES: CC[C@H](C)[C@H](NC(=O)[C@H](C)NC(=O)CNC(=O)[C@H](Cc1ccccc1)NC(=O)[C@H](CC(N)=O)NC(=O)[C@@H]1CCCN1C(=O)[C@H](CO)NC(=O)[C@H](CO)NC(=O)[C@H](Cc1c[nH]cn1)NC(=O)[C@H](CCCNC(=N)N)NC(=O)[C@H](CC(C)C)NC(=O)[C@H](Cc1ccccc1)NC(=O)[C@H](CC(=O)O)NC(=O)[C@H](C)NC(=O)[C@H](CC(C)C)NC(=O)[C@H](CCCNC(=N)N)NC(=O)[C@H](CCC(N)=O)NC(=O)[C@@H](NC(=O)[C@H](C)NC(=O)[C@@H]1CSSC[C@H](NC(=O)[C@@H](N)CCCCNC(=O)CC[C@H](NC(=O)CC[C@H](NC(=O)CCCCCCCCCCCCCCCCCCC(=O)O)C(=O)O)C(=O)O)C(=O)N[C@@H](CC(N)=O)C(=O)N[C@@H]([C@@H](C)O)C(=O)N[C@@H](C)C(=O)N[C@@H]([C@@H](C)O)C(=O)N1)[C@@H](C)O)C(=O)N1CCC[C@H]1C(=O)N[C@@H](CO)C(=O)N[C@@H](CO)C(=O)N[C@H](C(=O)N[C@@H](CC(N)=O)C(=O)N[C@H](C(=O)NCC(=O)N[C@@H](CO)C(=O)N[C@@H](CC(=O)O)C(=O)N[C@H](C(=O)N[C@@H](Cc1ccc(O)cc1)C(N)=O)[C@@H](C)O)C(C)C)[C@@H](C)O
notes: also called 14D, 17R, 21P, 27P, 35D
B3: N^ε1-[(4S)-4-carboxy-4-[[(4S)-4-carboxy-4-(19-carboxynonadecanoylamino)butanoyl]amino]butanoyl]-[Asp14,Arg17,Pro21,Pro27,Pro34,Glu35]-h-amylin (peptide)
peptide: K([γGlu-γGlu-C20 diacid])CNTATCATQRLADFLRHSSPNFGAIPSSTNVGPETY-NH2
modifications: disulfide 2-7; N-terminus assumed
SMILES: CC[C@H](C)[C@H](NC(=O)[C@H](C)NC(=O)CNC(=O)[C@H](Cc1ccccc1)NC(=O)[C@H](CC(N)=O)NC(=O)[C@@H]1CCCN1C(=O)[C@H](CO)NC(=O)[C@H](CO)NC(=O)[C@H](Cc1c[nH]cn1)NC(=O)[C@H](CCCNC(=N)N)NC(=O)[C@H](CC(C)C)NC(=O)[C@H](Cc1ccccc1)NC(=O)[C@H](CC(=O)O)NC(=O)[C@H](C)NC(=O)[C@H](CC(C)C)NC(=O)[C@H](CCCNC(=N)N)NC(=O)[C@H](CCC(N)=O)NC(=O)[C@@H](NC(=O)[C@H](C)NC(=O)[C@@H]1CSSC[C@H](NC(=O)[C@@H](N)CCCCNC(=O)CC[C@H](NC(=O)CC[C@H](NC(=O)CCCCCCCCCCCCCCCCCCC(=O)O)C(=O)O)C(=O)O)C(=O)N[C@@H](CC(N)=O)C(=O)N[C@@H]([C@@H](C)O)C(=O)N[C@@H](C)C(=O)N[C@@H]([C@@H](C)O)C(=O)N1)[C@@H](C)O)C(=O)N1CCC[C@H]1C(=O)N[C@@H](CO)C(=O)N[C@@H](CO)C(=O)N[C@H](C(=O)N[C@@H](CC(N)=O)C(=O)N[C@H](C(=O)NCC(=O)N1CCC[C@H]1C(=O)N[C@@H](CCC(=O)O)C(=O)N[C@H](C(=O)N[C@@H](Cc1ccc(O)cc1)C(N)=O)[C@@H](C)O)C(C)C)[C@@H](C)O
notes: also called 14D, 17R, 21P, 27P, 34P, 35E
B4: N^ε1-[(4S)-4-carboxy-4-[[(4S)-4-carboxy-4-(19-carboxynonadecanoylamino)butanoyl]amino]butanoyl]-[Glu14,Arg17,Pro21,Pro27,Arg34,Glu35]-h-amylin (peptide)
peptide: K([γGlu-γGlu-C20 diacid])CNTATCATQRLAEFLRHSSPNFGAIPSSTNVGRETY-NH2
modifications: disulfide 2-7; N-terminus assumed
SMILES: CC[C@H](C)[C@H](NC(=O)[C@H](C)NC(=O)CNC(=O)[C@H](Cc1ccccc1)NC(=O)[C@H](CC(N)=O)NC(=O)[C@@H]1CCCN1C(=O)[C@H](CO)NC(=O)[C@H](CO)NC(=O)[C@H](Cc1c[nH]cn1)NC(=O)[C@H](CCCNC(=N)N)NC(=O)[C@H](CC(C)C)NC(=O)[C@H](Cc1ccccc1)NC(=O)[C@H](CCC(=O)O)NC(=O)[C@H](C)NC(=O)[C@H](CC(C)C)NC(=O)[C@H](CCCNC(=N)N)NC(=O)[C@H](CCC(N)=O)NC(=O)[C@@H](NC(=O)[C@H](C)NC(=O)[C@@H]1CSSC[C@H](NC(=O)[C@@H](N)CCCCNC(=O)CC[C@H](NC(=O)CC[C@H](NC(=O)CCCCCCCCCCCCCCCCCCC(=O)O)C(=O)O)C(=O)O)C(=O)N[C@@H](CC(N)=O)C(=O)N[C@@H]([C@@H](C)O)C(=O)N[C@@H](C)C(=O)N[C@@H]([C@@H](C)O)C(=O)N1)[C@@H](C)O)C(=O)N1CCC[C@H]1C(=O)N[C@@H](CO)C(=O)N[C@@H](CO)C(=O)N[C@H](C(=O)N[C@@H](CC(N)=O)C(=O)N[C@H](C(=O)NCC(=O)N[C@@H](CCCNC(=N)N)C(=O)N[C@@H](CCC(=O)O)C(=O)N[C@H](C(=O)N[C@@H](Cc1ccc(O)cc1)C(N)=O)[C@@H](C)O)C(C)C)[C@@H](C)O
notes: also called 14E, 17R, 21P, 27P, 34R, 35E
B5: N^ε1-[(4S)-4-carboxy-4-[[(4S)-4-carboxy-4-(19-carboxynonadecanoylamino)butanoyl]amino]butanoyl]-[Glu14,Arg17,Pro21,Pro27,Arg34]-h-amylin (peptide)
peptide: K([γGlu-γGlu-C20 diacid])CNTATCATQRLAEFLRHSSPNFGAIPSSTNVGRNTY-NH2
modifications: disulfide 2-7; N-terminus assumed
SMILES: CC[C@H](C)[C@H](NC(=O)[C@H](C)NC(=O)CNC(=O)[C@H](Cc1ccccc1)NC(=O)[C@H](CC(N)=O)NC(=O)[C@@H]1CCCN1C(=O)[C@H](CO)NC(=O)[C@H](CO)NC(=O)[C@H](Cc1c[nH]cn1)NC(=O)[C@H](CCCNC(=N)N)NC(=O)[C@H](CC(C)C)NC(=O)[C@H](Cc1ccccc1)NC(=O)[C@H](CCC(=O)O)NC(=O)[C@H](C)NC(=O)[C@H](CC(C)C)NC(=O)[C@H](CCCNC(=N)N)NC(=O)[C@H](CCC(N)=O)NC(=O)[C@@H](NC(=O)[C@H](C)NC(=O)[C@@H]1CSSC[C@H](NC(=O)[C@@H](N)CCCCNC(=O)CC[C@H](NC(=O)CC[C@H](NC(=O)CCCCCCCCCCCCCCCCCCC(=O)O)C(=O)O)C(=O)O)C(=O)N[C@@H](CC(N)=O)C(=O)N[C@@H]([C@@H](C)O)C(=O)N[C@@H](C)C(=O)N[C@@H]([C@@H](C)O)C(=O)N1)[C@@H](C)O)C(=O)N1CCC[C@H]1C(=O)N[C@@H](CO)C(=O)N[C@@H](CO)C(=O)N[C@H](C(=O)N[C@@H](CC(N)=O)C(=O)N[C@H](C(=O)NCC(=O)N[C@@H](CCCNC(=N)N)C(=O)N[C@@H](CC(N)=O)C(=O)N[C@H](C(=O)N[C@@H](Cc1ccc(O)cc1)C(N)=O)[C@@H](C)O)C(C)C)[C@@H](C)O
notes: also called 14E, 17R, 21P, 27P, 34R
B6: N^ε1-[(4S)-4-carboxy-4-[[(4S)-4-carboxy-4-(19-carboxynonadecanoylamino)butanoyl]amino]butanoyl]-[Glu14,Arg17,Pro21,Pro27,His34,Glu35]-h-amylin (peptide)
peptide: K([γGlu-γGlu-C20 diacid])CNTATCATQRLAEFLRHSSPNFGAIPSSTNVGHETY-NH2
modifications: disulfide 2-7; N-terminus assumed
SMILES: CC[C@H](C)[C@H](NC(=O)[C@H](C)NC(=O)CNC(=O)[C@H](Cc1ccccc1)NC(=O)[C@H](CC(N)=O)NC(=O)[C@@H]1CCCN1C(=O)[C@H](CO)NC(=O)[C@H](CO)NC(=O)[C@H](Cc1c[nH]cn1)NC(=O)[C@H](CCCNC(=N)N)NC(=O)[C@H](CC(C)C)NC(=O)[C@H](Cc1ccccc1)NC(=O)[C@H](CCC(=O)O)NC(=O)[C@H](C)NC(=O)[C@H](CC(C)C)NC(=O)[C@H](CCCNC(=N)N)NC(=O)[C@H](CCC(N)=O)NC(=O)[C@@H](NC(=O)[C@H](C)NC(=O)[C@@H]1CSSC[C@H](NC(=O)[C@@H](N)CCCCNC(=O)CC[C@H](NC(=O)CC[C@H](NC(=O)CCCCCCCCCCCCCCCCCCC(=O)O)C(=O)O)C(=O)O)C(=O)N[C@@H](CC(N)=O)C(=O)N[C@@H]([C@@H](C)O)C(=O)N[C@@H](C)C(=O)N[C@@H]([C@@H](C)O)C(=O)N1)[C@@H](C)O)C(=O)N1CCC[C@H]1C(=O)N[C@@H](CO)C(=O)N[C@@H](CO)C(=O)N[C@H](C(=O)N[C@@H](CC(N)=O)C(=O)N[C@H](C(=O)NCC(=O)N[C@@H](Cc1c[nH]cn1)C(=O)N[C@@H](CCC(=O)O)C(=O)N[C@H](C(=O)N[C@@H](Cc1ccc(O)cc1)C(N)=O)[C@@H](C)O)C(C)C)[C@@H](C)O
notes: also called 14E, 17R, 21P, 27P, 34H, 35E

What follows are binders tested against T1, human amylin receptor (assay: SPA competition binding, displacement of 125I-rat amylin from membranes with human amylin 3(a) receptor (Assay V)).
In short: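 Membranes from BHK Amylin 3(a)/CRE-luc cells (35 ng/μL final) were mixed with SPA beads and test compounds in 50 mM Hepes pH 7.4 with 1 mM CaCl2, 5 mM MgCl₂, 0.1% OA and 0.02% Tween20. Incubation ran 120 min at 25° C with shaking; IC₅₀ came from one-site competition fitting.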

**Q.** B1 was tested. Which IC50 did it give?
**A.** Its IC50 is 697 pM.

**Q.** For B2, which IC50 is on record?
**A.** The IC50 was 411 pM.

**Q.** B3 was tested. Which IC50 did it give?
**A.** Its IC50 is 172 pM.

**Q.** Which IC50 does the source give for B4 here?
**A.** The IC50 was 957 pM.

**Q.** B5 was tested. Which IC50 did it give?
**A.** Its IC50 is 750 pM.

**Q.** How did the IC50 turn out when B6 was run?
**A.** Its IC50 is 525 pM.
